We go through 1 protein from article PMC2570560, “Subunit Mobility and the Chaperone Activity of Recombinant αB-Crystallin” (The Open Biochemistry Journal, 2008).

The data set deals with the molecule itself. Nature of the data set: cross-linking; 0.05 mM αB-crystallin with 0.3 mM glutaraldehyde in PBS (20 mM phosphate buffer, 150 mM NaCl, pH 7.2), 20 °C, 30 h; dialysed against PBS; examined by SDS-PAGE.

B1: recombinant human αB-crystallin (natural protein, UniProt P02511 1-175, looked up)
chain: MDIAIHHPWIRRPFFPFHSPSRLFDQFFGEHLLESDLFPTSTSLSPFYLRPPSFLRAPSWFDTGLSEMRLEKDRFSVNLDVKHFSPEELKVKVLGDVIEVHGKHEERQDEHGFISREFHRKYRIPADVDPLTITSSLSSDGVLTVNGPRKQVSGPERTIPITREEKPAVTAAPKK
notes: also called native αB-crystallin; source: E. coli BL21(DE3), purified (ammonium sulfate fractionation, Q-Sepharose anion exchange)
B1: the binding result is given as “binds”.
